Results on 22 molecules are retold here after patent publication US20240041987A1, “NOVEL BIOACTIVE PEPTIDE COMBINATIONS AND USES THEREOF” (COLZYX AB, priority 2020, published 2024).

Where two headings read alike, the source gives them in different places.

In one data set the test system is microorganisms. Conditions: cited from earlier work.
For the next data set, the system named is wound healing. Conditions: cited from earlier work.
Where [1] appears, read: 25 ± 2° C./60% RH ± 5%, 1 month.
[2] abbreviates: 25 ± 2° C./60% RH ± 5%, 3 months.

Turning to “TSSPTSNPVTTTKPVTTTKPVTTTTKPVTTTTKPVT (TSS36) [collagen VI derived polypeptide]”, the “Antimicrobial activity?” value in the data set with microorganisms was “Yes”.

For the molecule “DVNVFAIGVEDADEGALKEIASEPLNMHMFNL (DVN32) [collagen VI derived polypeptide]”, the “Wound healing activity?” value in the data set on wound healing was “No”. Moreover, the “Antimicrobial activity?” value with microorganisms is given as “No”.

For “FFLKDFSTKRQIIDAINKVVYKGGR (FFL25) [collagen VI derived polypeptide]”, in the data set on wound healing, the “Wound healing activity?” value was “have wound healing properties and Yes”. The “Antimicrobial activity?” value in the data set with microorganisms was “Yes”.

Take “TKRFAKRLAERFLTAGRTDP (TKR20) [collagen VI derived polypeptide]”: the “Antimicrobial activity?” value in the data set with microorganisms is recorded as “Yes”.

Take “RKVAVFFSNTPTRASPQLRE (RKV20) [collagen VI derived polypeptide]”: the “Antimicrobial activity?” value in the data set on microorganisms is “Yes”.

Regarding “YDRLIKESRRQKTRVFAVVI (YDR20) [collagen VI derived polypeptide]”, the “Antimicrobial activity?” value in the data set with microorganisms was “Yes”.

In the case of “FYLKTYRSQAPVLDAIRRLRLRGGS (FYL25) [collagen VI derived polypeptide]”, in the data set with wound healing, the “Wound healing activity?” value is “have wound healing properties and Yes”. Besides, the “Antimicrobial activity?” value with microorganisms was “Yes”.

“GFAHIRDFVSRIVRRLNIGP (GFA20) [collagen VI derived polypeptide]”: the “Antimicrobial activity?” value with microorganisms is “Yes”.

Consider “EQNFHKARRFVEQVARRLTL (EQN20) [collagen VI derived polypeptide]”, for which the “Antimicrobial activity?” value with microorganisms is on record as “Yes”.

Consider “AAKPVATKPEVPRPQAAKPA (AAK20) [collagen VI derived polypeptide]”, for which, in the data set with microorganisms, the “Antimicrobial activity?” value is “Yes”.

With “VVHAINAIVRSPRGGARRHA (VVH20) [collagen VI derived polypeptide]”, in the data set on microorganisms, the “Antimicrobial activity?” value is recorded as “Yes”.

Consider “RDALKSSVDAVKYFGKGTYT (RDA20) [collagen VI derived polypeptide]”, for which the “Antimicrobial activity?” value in the data set with microorganisms is given as “Yes”.

“QAPVLDAIRRLRLRGGSPLN (QAP20) [collagen VI derived polypeptide]”: the “Antimicrobial activity?” value in the data set on microorganisms is listed as “Yes”.

Turning to “KPEILNLVKRMKIKTGKALN (KPE20) [collagen VI derived polypeptide]”, the “Antimicrobial activity?” value with microorganisms is “Yes”.

Turning to “LRLKPYGALVDKVKSFTKRF (LRL20) [collagen VI derived polypeptide]”, in the data set with microorganisms, the “Antimicrobial activity?” value was “Yes”.

As for “VTTEIRFADSKRKSVLLDKIKNLQVALTSK (VTT30) [collagen VI derived polypeptide]”, in the data set on wound healing, the “Wound healing activity?” value was “have wound healing properties and Yes”. Besides, the “Antimicrobial activity?” value with microorganisms is listed as “Yes”.

As to “TTKPVTTTKPVTTTTKPVTT (TTK20) [collagen VI derived polypeptide]”, the “Antimicrobial activity?” value in the data set on microorganisms is “Yes”.

Take “VAAKPVATKMAVRPPVAVKP (VAA20) [collagen VI derived polypeptide]”: the “Antimicrobial activity?” value with microorganisms is “Yes”.

Consider “GVRPDGFAHIRDFVSRIVRRLNIGPSKV (GVR28) [peptide derived from collagen VI alpha-3 chain]”, for which the “Wound healing activity?” value in the data set on wound healing is “have wound healing properties and Yes”. Where the note is “25 ± 2° C./60% RH ± 5%, 0 D”, the Appearance result is given as “White powder”; the “Identity (RP-HPLC)” value is given as “Retention Time Conforms”; the “Purity (RP-HPLC)” value was found to be 98.1%; the “Related Impurities (by RRT), Specified Impurity %: RRT = 0.80*, RRT = 0.81* Total” value is reported as 0.07%. Under “25 ± 2° C./60% RH ± 5%, 0 D”, the “Related Impurities (by RRT), Specified Impurity %: RRT = 0.96*” value was 0.38%; the “Related Impurities (by RRT), Specified Impurity %: RRT = 1.04” value came to 0.56%; the “Related Impurities (by RRT), Specified Impurity %: RRT = 1.13*” value stood at 0.22%; the “Unspecified Impurity % (Report ≥0.10%): RRT = 0.94” value was determined as 0.15%. Besides, where the note is “25 ± 2° C./60% RH ± 5%, 0 D”, the “Unspecified Impurity % (Report ≥0.10%): RRT = 1.09” value is recorded as 0.32%, the “Unspecified Impurity % ≤0.50%” value is “Conforms” and the “Water Content (KF)” value was 4.2%. Besides, under setting [1], the Appearance entry is recorded as “White powder”; the “Identity (RP-HPLC)” value is on record as “Retention Time Conforms”; the “Purity (RP-HPLC)” value worked out at 97.7%; the “Related Impurities (by RRT), Specified Impurity %: RRT = 0.82*” value was found to be 0.07%. Under setting [1], the “Related Impurities (by RRT), Specified Impurity %: RRT = 0.97” value came out at 0.40%; the “Related Impurities (by RRT), Specified Impurity %: RRT = 1.04” value came out at 0.57%; the “Related Impurities (by RRT), Specified Impurity %: RRT = 1.12” value stood at 0.49%; the “Unspecified Impurity % (Report ≥0.10%): RRT = 0.95” value (“Unspecified Impurity % … RRT = 0.95” below) stood at 0.16%. In addition, under setting [1], the “Unspecified Impurity % (Report ≥0.10%): RRT = 1.08” value (“Unspecified Impurity % … RRT = 1.08” for short) came out at 0.32%, the “Unspecified Impurity % ≤0.50%” value was “Conforms” and the “Water Content (KF)” value stood at 3.9%. Under setting [2], the Appearance entry is on record as “White powder”; the “Identity (RP-HPLC)” value is on record as “Retention Time Conforms”; the “Purity (RP-HPLC)” value is 97.3%; the “Related Impurities (by RRT), Specified Impurity %: RRT = 0.83*” value was 0.12%. Moreover, under setting [2], the “Related Impurities (by RRT), Specified Impurity %: RRT = 0.97” value stood at 0.41%; the “Related Impurities (by RRT), Specified Impurity %: RRT = 1.04” value was found to be 0.56%; the “Related Impurities (by RRT), Specified Impurity %: RRT = 1.12” value is on record as 0.77%; the “Unspecified Impurity % … RRT = 0.95” value is listed as 0.17%. In addition, under setting [2], the “Unspecified Impurity % … RRT = 1.08” value is 0.32%, the “Unspecified Impurity % ≤0.50%” value is “conforms” and the “Water Content (KF)” value came to 3.9%. Also, the “change in purity during the initial 3 months” value (stored at 25° C.) is reported as “slight decrease in purity”. Where the note is “−20 ± 5° C., 0 D”, the Appearance entry is reported as “White powder”; the “Identity (RP-HPLC)” value is “Retention Time Conforms”; the “Purity (RP-HPLC)” value amounted to 98.10%; the “Related Impurities (by RRT), Specified Impurity %: RRT = 0.80*, RRT = 0.81* Total” value was 0.07%. Where the note is “−20 ± 5° C., 0 D”, the “Related Impurities (by RRT), Specified Impurity %: RRT = 0.96*” value worked out at 0.38%; the “Related Impurities (by RRT), Specified Impurity %: RRT = 1.04” value came out at 0.56%; the “Related Impurities (by RRT), Specified Impurity %: RRT = 1.13*” value turned out to be 0.22%; the “Unspecified Impurity % (Report ≥0.10%): RRT = 0.94” value turned out to be 0.15%. In addition, under “−20 ± 5° C., 0 D”, the “Unspecified Impurity % (Report ≥0.10%): RRT = 1.09” value is 0.32%, the “Unspecified Impurity % ≤0.50%” value is “conforms” and the “Water Content (KF)” value was 4.2%. Also, where the note is “−20 ± 5° C., 3 months”, the Appearance entry is “White powder”; the “Identity (RP-HPLC)” value was “Retention Time Conforms”; the “Purity (RP-HPLC)” value turned out to be 98.10%; the “Related Impurities (by RRT), Specified Impurity %: RRT = 0.83*” value turned out to be 0.04%. Besides, where the note is “−20 ± 5° C., 3 months”, the “Related Impurities (by RRT), Specified Impurity %: RRT = 0.97” value is on record as 0.38%; the “Related Impurities (by RRT), Specified Impurity %: RRT = 1.04” value turned out to be 0.54%; the “Related Impurities (by RRT), Specified Impurity %: RRT = 1.12” value is listed as 0.20%; the “Unspecified Impurity % … RRT = 0.95” value worked out at 0.17%. Besides, for the setting “−20 ± 5° C., 3 months”, the “Unspecified Impurity % … RRT = 1.08” value was 0.31%, the “Unspecified Impurity % ≤0.50%” value is recorded as “conforms” and the “Water Content (KF)” value is on record as 1.8%. Moreover, in the data set with microorganisms, the “Antimicrobial activity?” value was “Yes”.

As to “FTKRFIDNLRDRYYRCDRNL (FTK20) [collagen VI derived polypeptide]”, the “Antimicrobial activity?” value with microorganisms is reported as “Yes”.

Consider “KGFESKVDAILNRISQMHRV (KGF20) [collagen VI derived polypeptide]”, for which the “Antimicrobial activity?” value in the data set with microorganisms is on record as “Yes”.

B1: AAAKPAPAKPVAAKPVATKMATVRPPVAVKPATAAKPVAAKPAAVRPPAAAAAKPVATKPEVPRPQAAKPAATKPA (peptide)
chain: AAAKPAPAKPVAAKPVATKMATVRPPVAVKPATAAKPVAAKPAAVRPPAAAAAKPVATKPEVPRPQAAKPAATKPA
modifications: AAA76
notes: collagen VI derived polypeptide
For B1, in the data set on microorganisms, the “Antimicrobial activity?” value is “Yes”.
